A short description of data set [1]: Enzymatic assay of NAD(P)H oxidase activity, NADH as substrate (absorbance at 340). Type of data set: biochemical. On the procedure:
FIGS. 1A-1E illustrate the biochemical properties of LbNOX with a C-terminal FLAG tag and a cleavable N-terminal hexahistidine (Hisx6) tag produced by overexpression in E. coli. Purified LbNOX-FLAG has a yellow color and a UV-visible absorption spectrum (λmax=371 and 444 nm) similar to other FAD-containing enzymes, which can be reduced upon the addition of sodium dithionite (FIG. 1B). (FIG. 1A) Reaction catalyzed by LbNOX. (FIG. 1B) UV-visible spectrum of purified LbNOX. Protein (82.8 μM FAD active sites) in 50 mM NaPi pH 7.5, 150 mM NaCl after purification in oxidized form (solid line) and after addition of excess of sodium dithionite, reduced form (dashed line). Inset: SDS-PAGE of purified LbNOX. (FIG. 1C) Simultaneous measurement of NADH and oxygen consumption by LbNOX as assayed in 50 mM NaPi pH 7.5, 150 mM NaCl at 28° C. NADH (500 μM) and LbNOX (1.8 μg) were added as indicated by arrows. (FIG. 1D) Michaelis-Menten analysis of the NAD(P)H oxidase activity of recombinant LbNOX. Inset: values for Vmax and KM for NADH represent the mean±S.D. (error bars) from four independent experiments. (FIG. 1E) The crystal structure of LbNOX. The FAD in stick representation and bound oxygen in red spheres. Inset: The substrate selectivity loops of LbNOX (containing Asp177, Ala178, and Pro184) and glutathione reductase—NADPH complex (containing Arg198 and Arg204) (PDB ID 1GET). Backbone atoms of NAD(P)H binding domains of each protein (residues 147-247 of LbNOX and 167-268 of glutathione reductase) were superimposed using the least square algorithm of COOT. Note that Arg198 and Arg204 of glutathione reductase, which tightly bind the phosphate moiety of NADPH, are replaced in LbNOX with Ala178 and Pro184, respectively. Negatively charged side chain of Asp177 in LbNOX replaces the neutral Val197 of glutathione reductase.
Recombinant LbNOX activity was monitored by following the decrease of the absorbance of NAD(P)H at […] using CARY® 100 spectrophotometer (Agilent, CA). A typical reaction mixture contained 2 μM FAD in 0.5 ml of the assay buffer (50 mM Na2HPO4, pH 7.5, 150 mM NaCl) and was incubated for 4 min at 37° C. before NAD(P)H (2-600 μM) and enzyme (0.08-6.8 μg) were added. Extinction coefficient (ε340=6.2 mM^−1 cm^−1) was used to calculate NAD(P)H oxidase activity. Simultaneous monitoring of oxygen consumption and NADH fluorescence was performed using a custom-built fluorimeter. In our setup the REDEYE™ oxygen patch (OceanOptics) was installed in a cuvette and the optical probe was connected to a fluorimeter. Oxygen causes quenching of the REDEYE™ patch fluorescence which allows to monitor the partial pressure of oxygen. In our experiments 0.5 ml of the assay buffer was preincubated at 28° C. before NADH (40-1500 μM) and LbNOX (0.1-2 μg) were added.

For the next data set, the system named is HeLa cells. Description: Oxygen consumption rate (OCR), XF24 extracellular flux analyzer. It counts as cell-based, human. The following applies: for increase in oxygen consumption: resistance to antimycin: 1 μM antimycin (complex III inhibitor); for increase in oxygen consumption of HeLa cells: doxycycline-inducible expression. How it is done:
Oxygen consumption rates (OCR) of HeLa cells expressing 5 bacterial NOXes (untargeted and targeted to mitochondria) and Luciferase under the control of doxycycline (DOX) inducible promoter (TRE3G) were measured with the XF24 Extracellular Flux Analyzer (Seahorse Bioscience, manufactured in 2008). Cells were seeded at 30-40×10^3 cells per well in XF24 24-well cell culture microplates in 200 μl of DMEM (DMEM (US Biological, […]), 3.7 g/L NaHCO3 and 10% dialyzed FBS (Life Technologies, 26400-044) and were incubated at 37° C. in 5% CO2 incubator. Media was replaced the next day with 1 ml per well and doxycycline (final concentration -300 ng/ml, prepared in water) or water were added to the corresponding wells to induce protein expression. Twenty four hour later, media was replaced with 950 μL of the assay medium (no pyruvate DMEM (US Biological, […]), 15.9 mg/L phenol red, 10% dialyzed FBS (Life Technologies, 26400-044) and 25 mM HEPES-KOH, pH 7.4) and plates were introduced into the […] Extracellular Flux Analyzer for experimental measurements. Each measurement was performed over 4 min after a 2-min mix and a 2-min wait period. Basal measurements were collected 8 times and 4 measurements were collected after injection of oligomycin (final concentration 1 μM), followed by 4 measurements after addition of antimycin A (final concentration 1 μM) from the XF24 ports in 50 μL of the assay medium. Cells were seeded at 30-40×10^3 per well in XF24 24-well cell culture microplates in 200 μl of normal growth media (DMEM (US Biological, […]), 3.7 g/L NaHCO3 and 10% dialyzed FBS (Life Technologies, 26400-044)) and were incubated at 37° C. in 5% CO2 incubator. For all experiments the next day media was renewed with 1 ml per well and doxycycline (final concentration -300 ng/ml) or water were added. Twenty four hours later, media was changed to no pyruvate media (no pyruvate DMEM (US Biological, […]), 15.9 mg/L phenol red, 3.7 g/L NaHCO3 and 10% dialyzed FBS (Life Technologies, 26400-044)). Two hours later, media was replaced with 950 μL of the assay medium (no pyruvate DMEM (US Biological, […]), 15.9 mg/L phenol red, 10% dialyzed FBS (Invitrogen, 26400-044) and 25 mM HEPES-KOH, pH 7.4) and OCR was measured. Each measurement was performed over 4 min after a 2-min mix and a 2-min wait period. Basal measurements were collected 8 times and 4 measurements were collected after injection of each drug: antimycin A (final concentration 1 μM) or piericidin (final concentration 1 μM). Three measurements before and after addition of the drug were averaged and normalized by the cell number.

These results are taken from patent publication US11866736B2, “Protein prostheses for mitochondrial diseases or conditions” (The General Hospital Corporation, priority 2015, dated 2024).

For orientation: Km means the concentration of substrate that gives half-maximal velocity.

B1: LbNOX: water-forming NADH oxidase endogenous to Lactobacillus brevis; tested with C-terminal FLAG tag (protein, listed as Lactobacillus brevis)
chain: KVTVVGCTHAGTFAIKQILAEHPDAEVTVYERNDVISFLSCGIALYLGGKVADPQGLFYSSPEELQKLGANVQMNHNVLAIDPDQKTVTVEDLTNHAQTTESYDKLVMTSGSWPIVPKIPGIDSDRVKLCKNWAHAQALIEDAKEAKRITVIGAGYIGAELAEAYSTTGHDVTLIDAMARVMPKYFDADFTDVIEQDYRDHGVQLALGETVESFTDSATGLTIKTDKNSYETDLAILCIGFRPNTDLLKGKVDMAPNGAIITDDYMRSSNPDIFAAGDSAAVHYNPTHQNAYIPLATNAVRQGILVGKNLVKPTVKYMGTQSSSGLALYDRTIVSTGLTLAAAKQQGLNAEQVIVEDNYRPEFMPSTEPVLMSLVFDPDTHRILGGALMSKYDVSQSANTLSVCIQNENTIDDLAMVDMLFQPNFDRPFNYLNILAQAAQAKVAQSVNA
modifications: C-terminal FLAG tag
B1: in data set [1], the “substrate selectivity NADH vs NADPH” value is given as “selectively oxidizes NADH over NADPH”. The molecule further returned a specific activity in data set [1] (after enterokinase cleavage of N-terminal Hisx6 tag) of about 750 µmol/min/mg. In data set [1] (fully reconstituted LbNOX (holoLbNOX), peak from Source 15Q, N-terminal Hisx6 tag present), this molecule had a specific activity of about 550 µmol/min/mg. For the same molecule, the Km in data set [1] (recombinant enzyme, read-out: apparent KM for NADH) stood at 69 ± 3 µM. In addition, in the data set on HeLa cells, the “increase in oxygen consumption: resistance to antimycin” value is listed as “resistant” and the “increase in oxygen consumption of HeLa cells” value worked out at 1.6 fold. For the same molecule, the “increase in oxygen consumption: resistance to piericidin” value with HeLa cells (1 μM piericidin (complex I inhibitor)) is on record as “resistant”.

B2: TPNOX: NADPH-specific quintuple mutant (G159A/D177A/A178R/M179S/P184R) of LbNOX (protein)
chain: KVTVVGCTHAGTFAIKQILAEHPDAEVTVYERNDVISFLSCGIALYLGGKVADPQGLFYSSPEELQKLGANVQMNHNVLAIDPDQKTVTVEDLTNHAQTTESYDKLVMTSGSWPIVPKIPGIDSDRVKLCKNWAHAQALIEDAKEAKRITVIGAGYIAAELAEAYSTTGHDVTLIARSARVMRKYFDADFTDVIEQDYRDHGVQLALGETVESFTDSATGLTIKTDKNSYETDLAILCIGFRPNTDLLKGKVDMAPNGAIITDDYMRSSNPDIFAAGDSAAVHYNPTHQNAYIPLATNAVRQGILVGKNLVKPTVKYMGTQSSSGLALYDRTIVSTGLTLAAAKQQGLNAEQVIVEDNYRPEFMPSTEPVLMSLVFDPDTHRILGGALMSKYDVSQSANTLSVCIQNENTIDDLAMVDMLFQPNFDRPFNYLNILAQAAQAKVAQSVNA
Take B2: the “kcat with NADH” value in data set [1] was found to be 3.2 ± 0.2 s⁻¹. Moreover, in the data set with HeLa cells, the “increase in oxygen consumption: resistance to antimycin” value is “resistant” and the “increase in oxygen consumption of HeLa cells” value came to 1.7 fold.
